# Assay results as given in the Human Domainome abundance scans (Beltran et al. 2025).
# ± gives the uncertainty stated by the source.
# B1: PDZ and LIM domain protein 2, residues 284 to 339; numbered along this chain, Q96JY6 (parent)
# chain: HTCEKCSTSIANQAVRIQEGRYRHPGCYTCADCGLNLKMRGHFWVGDELYCEKHAR
# Variants of: B1
# Assay: abundance fitness (aPCA) (normalised: wild type 0, dead -1); higher = more abundant; growth selection in yeast, the domain comes from the species named
# Details: Homo sapiens
row,Variant,abundance fitness
1,HTTEKCSTSIANQAVRIQEGRYRHPGCYTCADCGLNLKMRGHFWVGDELYCEKHAR,-0.586 ± 0.09
2,HTGEKCSTSIANQAVRIQEGRYRHPGCYTCADCGLNLKMRGHFWVGDELYCEKHAR,-1.17 ± 0.17
3,HTFEKCSTSIANQAVRIQEGRYRHPGCYTCADCGLNLKMRGHFWVGDELYCEKHAR,-0.483 ± 0.11
4,HTAEKCSTSIANQAVRIQEGRYRHPGCYTCADCGLNLKMRGHFWVGDELYCEKHAR,-1.1 ± 0.2
5,HTPEKCSTSIANQAVRIQEGRYRHPGCYTCADCGLNLKMRGHFWVGDELYCEKHAR,-0.968 ± 0.15
6,HTLEKCSTSIANQAVRIQEGRYRHPGCYTCADCGLNLKMRGHFWVGDELYCEKHAR,-0.978 ± 0.16
7,HTQEKCSTSIANQAVRIQEGRYRHPGCYTCADCGLNLKMRGHFWVGDELYCEKHAR,-0.82 ± 0.13
8,HTMEKCSTSIANQAVRIQEGRYRHPGCYTCADCGLNLKMRGHFWVGDELYCEKHAR,-0.856 ± 0.096
9,HTDEKCSTSIANQAVRIQEGRYRHPGCYTCADCGLNLKMRGHFWVGDELYCEKHAR,-1.02 ± 0.31
10,HTWEKCSTSIANQAVRIQEGRYRHPGCYTCADCGLNLKMRGHFWVGDELYCEKHAR,-1.05 ± 0.2
11,HTSEKCSTSIANQAVRIQEGRYRHPGCYTCADCGLNLKMRGHFWVGDELYCEKHAR,-0.693 ± 0.11
12,HTIEKCSTSIANQAVRIQEGRYRHPGCYTCADCGLNLKMRGHFWVGDELYCEKHAR,-0.471 ± 0.25
13,HTKEKCSTSIANQAVRIQEGRYRHPGCYTCADCGLNLKMRGHFWVGDELYCEKHAR,-0.45 ± 0.12
14,HTHEKCSTSIANQAVRIQEGRYRHPGCYTCADCGLNLKMRGHFWVGDELYCEKHAR,-0.399 ± 0.18
15,HTREKCSTSIANQAVRIQEGRYRHPGCYTCADCGLNLKMRGHFWVGDELYCEKHAR,-0.847 ± 0.059
16,HTVEKCSTSIANQAVRIQEGRYRHPGCYTCADCGLNLKMRGHFWVGDELYCEKHAR,-0.983 ± 0.18
17,HTYEKCSTSIANQAVRIQEGRYRHPGCYTCADCGLNLKMRGHFWVGDELYCEKHAR,-0.436 ± 0.13
18,HTEEKCSTSIANQAVRIQEGRYRHPGCYTCADCGLNLKMRGHFWVGDELYCEKHAR,-0.986 ± 0.23
19,RTCEKCSTSIANQAVRIQEGRYRHPGCYTCADCGLNLKMRGHFWVGDELYCEKHAR,-0.222 ± 0.11
20,DTCEKCSTSIANQAVRIQEGRYRHPGCYTCADCGLNLKMRGHFWVGDELYCEKHAR,-0.317 ± 0.48
21,QTCEKCSTSIANQAVRIQEGRYRHPGCYTCADCGLNLKMRGHFWVGDELYCEKHAR,-0.669 ± 0.25
22,MTCEKCSTSIANQAVRIQEGRYRHPGCYTCADCGLNLKMRGHFWVGDELYCEKHAR,0.268 ± 0.41
23,GTCEKCSTSIANQAVRIQEGRYRHPGCYTCADCGLNLKMRGHFWVGDELYCEKHAR,-0.247 ± 0.36
24,HTCEDCSTSIANQAVRIQEGRYRHPGCYTCADCGLNLKMRGHFWVGDELYCEKHAR,0.181 ± 0.12

row,Variant,abundance fitness
1,HTCEYCSTSIANQAVRIQEGRYRHPGCYTCADCGLNLKMRGHFWVGDELYCEKHAR,0.508 ± 0.14
2,HTCEGCSTSIANQAVRIQEGRYRHPGCYTCADCGLNLKMRGHFWVGDELYCEKHAR,-0.036 ± 0.057
3,HTCEPCSTSIANQAVRIQEGRYRHPGCYTCADCGLNLKMRGHFWVGDELYCEKHAR,-0.267 ± 0.16
4,HTCERCSTSIANQAVRIQEGRYRHPGCYTCADCGLNLKMRGHFWVGDELYCEKHAR,0.261 ± 0.079
5,HTCENCSTSIANQAVRIQEGRYRHPGCYTCADCGLNLKMRGHFWVGDELYCEKHAR,0.269 ± 0.16
6,HTCECCSTSIANQAVRIQEGRYRHPGCYTCADCGLNLKMRGHFWVGDELYCEKHAR,-0.068 ± 0.13
7,HTCELCSTSIANQAVRIQEGRYRHPGCYTCADCGLNLKMRGHFWVGDELYCEKHAR,0.049 ± 0.12
8,HTCEECSTSIANQAVRIQEGRYRHPGCYTCADCGLNLKMRGHFWVGDELYCEKHAR,0.038 ± 0.13
9,HTCEQCSTSIANQAVRIQEGRYRHPGCYTCADCGLNLKMRGHFWVGDELYCEKHAR,0.165 ± 0.12
10,HTCEACSTSIANQAVRIQEGRYRHPGCYTCADCGLNLKMRGHFWVGDELYCEKHAR,0.157 ± 0.11
11,HTCESCSTSIANQAVRIQEGRYRHPGCYTCADCGLNLKMRGHFWVGDELYCEKHAR,-0.108 ± 0.096
12,HTCEFCSTSIANQAVRIQEGRYRHPGCYTCADCGLNLKMRGHFWVGDELYCEKHAR,-0.467 ± 0.34
13,HTCEVCSTSIANQAVRIQEGRYRHPGCYTCADCGLNLKMRGHFWVGDELYCEKHAR,0.055 ± 0.074
14,HTCEMCSTSIANQAVRIQEGRYRHPGCYTCADCGLNLKMRGHFWVGDELYCEKHAR,-0.05 ± 0.083
15,HTCEICSTSIANQAVRIQEGRYRHPGCYTCADCGLNLKMRGHFWVGDELYCEKHAR,0.463 ± 0.14
16,HTCEWCSTSIANQAVRIQEGRYRHPGCYTCADCGLNLKMRGHFWVGDELYCEKHAR,-0.553 ± 0.18
17,HTCETCSTSIANQAVRIQEGRYRHPGCYTCADCGLNLKMRGHFWVGDELYCEKHAR,0.104 ± 0.13
18,HTCLKCSTSIANQAVRIQEGRYRHPGCYTCADCGLNLKMRGHFWVGDELYCEKHAR,-0.473 ± 0.066
19,HTCNKCSTSIANQAVRIQEGRYRHPGCYTCADCGLNLKMRGHFWVGDELYCEKHAR,0.14 ± 0.09
20,HTCYKCSTSIANQAVRIQEGRYRHPGCYTCADCGLNLKMRGHFWVGDELYCEKHAR,0.056 ± 0.22
21,HTCGKCSTSIANQAVRIQEGRYRHPGCYTCADCGLNLKMRGHFWVGDELYCEKHAR,-0.028 ± 0.096
22,HTCMKCSTSIANQAVRIQEGRYRHPGCYTCADCGLNLKMRGHFWVGDELYCEKHAR,0.093 ± 0.12
23,HTCIKCSTSIANQAVRIQEGRYRHPGCYTCADCGLNLKMRGHFWVGDELYCEKHAR,-0.331 ± 0.26
24,HTCQKCSTSIANQAVRIQEGRYRHPGCYTCADCGLNLKMRGHFWVGDELYCEKHAR,-0.16 ± 0.093

row,Variant,abundance fitness
1,HTCCKCSTSIANQAVRIQEGRYRHPGCYTCADCGLNLKMRGHFWVGDELYCEKHAR,0.033 ± 0.099
2,HTCFKCSTSIANQAVRIQEGRYRHPGCYTCADCGLNLKMRGHFWVGDELYCEKHAR,0.075 ± 0.1
3,HTCKKCSTSIANQAVRIQEGRYRHPGCYTCADCGLNLKMRGHFWVGDELYCEKHAR,-0.362 ± 0.12
4,HTCRKCSTSIANQAVRIQEGRYRHPGCYTCADCGLNLKMRGHFWVGDELYCEKHAR,-0.624 ± 0.052
5,HTCAKCSTSIANQAVRIQEGRYRHPGCYTCADCGLNLKMRGHFWVGDELYCEKHAR,-0.245 ± 0.068
6,HTCSKCSTSIANQAVRIQEGRYRHPGCYTCADCGLNLKMRGHFWVGDELYCEKHAR,0.014 ± 0.063
7,HTCDKCSTSIANQAVRIQEGRYRHPGCYTCADCGLNLKMRGHFWVGDELYCEKHAR,-0.063 ± 0.17
8,HTCHKCSTSIANQAVRIQEGRYRHPGCYTCADCGLNLKMRGHFWVGDELYCEKHAR,0.069 ± 0.15
9,HTCWKCSTSIANQAVRIQEGRYRHPGCYTCADCGLNLKMRGHFWVGDELYCEKHAR,-0.276 ± 0.12
10,HTCPKCSTSIANQAVRIQEGRYRHPGCYTCADCGLNLKMRGHFWVGDELYCEKHAR,-0.592 ± 0.065
11,HTCEKCATSIANQAVRIQEGRYRHPGCYTCADCGLNLKMRGHFWVGDELYCEKHAR,0.085 ± 0.079
12,HTCEKMSTSIANQAVRIQEGRYRHPGCYTCADCGLNLKMRGHFWVGDELYCEKHAR,-0.523 ± 0.13
13,HTCEKDSTSIANQAVRIQEGRYRHPGCYTCADCGLNLKMRGHFWVGDELYCEKHAR,-0.15 ± 0.22
14,HTCEKKSTSIANQAVRIQEGRYRHPGCYTCADCGLNLKMRGHFWVGDELYCEKHAR,-0.264 ± 0.19
15,HTCEKQSTSIANQAVRIQEGRYRHPGCYTCADCGLNLKMRGHFWVGDELYCEKHAR,-0.199 ± 0.16
16,HTCEKPSTSIANQAVRIQEGRYRHPGCYTCADCGLNLKMRGHFWVGDELYCEKHAR,-0.336 ± 0.2
17,HTCEKNSTSIANQAVRIQEGRYRHPGCYTCADCGLNLKMRGHFWVGDELYCEKHAR,-0.508 ± 0.17
18,HTCEKHSTSIANQAVRIQEGRYRHPGCYTCADCGLNLKMRGHFWVGDELYCEKHAR,-0.535 ± 0.19
19,HTCEKISTSIANQAVRIQEGRYRHPGCYTCADCGLNLKMRGHFWVGDELYCEKHAR,-0.135 ± 0.32
20,HTCEKVSTSIANQAVRIQEGRYRHPGCYTCADCGLNLKMRGHFWVGDELYCEKHAR,-0.282 ± 0.09
21,HTCEKASTSIANQAVRIQEGRYRHPGCYTCADCGLNLKMRGHFWVGDELYCEKHAR,-0.408 ± 0.14
22,HTCEKWSTSIANQAVRIQEGRYRHPGCYTCADCGLNLKMRGHFWVGDELYCEKHAR,-0.872 ± 0.12
23,HTCEKRSTSIANQAVRIQEGRYRHPGCYTCADCGLNLKMRGHFWVGDELYCEKHAR,-0.266 ± 0.096
24,HTCEKLSTSIANQAVRIQEGRYRHPGCYTCADCGLNLKMRGHFWVGDELYCEKHAR,-0.597 ± 0.082

row,Variant,abundance fitness
1,HTCEKYSTSIANQAVRIQEGRYRHPGCYTCADCGLNLKMRGHFWVGDELYCEKHAR,-0.743 ± 0.099
2,HTCEKGSTSIANQAVRIQEGRYRHPGCYTCADCGLNLKMRGHFWVGDELYCEKHAR,-0.437 ± 0.093
3,HTCEKTSTSIANQAVRIQEGRYRHPGCYTCADCGLNLKMRGHFWVGDELYCEKHAR,-0.48 ± 0.17
4,HTCEKFSTSIANQAVRIQEGRYRHPGCYTCADCGLNLKMRGHFWVGDELYCEKHAR,-0.667 ± 0.24
5,HTCEKESTSIANQAVRIQEGRYRHPGCYTCADCGLNLKMRGHFWVGDELYCEKHAR,-0.382 ± 0.17
6,HSCEKCSTSIANQAVRIQEGRYRHPGCYTCADCGLNLKMRGHFWVGDELYCEKHAR,-0.559 ± 0.085
7,HHCEKCSTSIANQAVRIQEGRYRHPGCYTCADCGLNLKMRGHFWVGDELYCEKHAR,0.144 ± 0.17
8,HQCEKCSTSIANQAVRIQEGRYRHPGCYTCADCGLNLKMRGHFWVGDELYCEKHAR,-0.339 ± 0.08
9,HVCEKCSTSIANQAVRIQEGRYRHPGCYTCADCGLNLKMRGHFWVGDELYCEKHAR,-0.685 ± 0.13
10,HNCEKCSTSIANQAVRIQEGRYRHPGCYTCADCGLNLKMRGHFWVGDELYCEKHAR,0.177 ± 0.11
11,HMCEKCSTSIANQAVRIQEGRYRHPGCYTCADCGLNLKMRGHFWVGDELYCEKHAR,-0.51 ± 0.21
12,HGCEKCSTSIANQAVRIQEGRYRHPGCYTCADCGLNLKMRGHFWVGDELYCEKHAR,-0.899 ± 0.13
13,HCCEKCSTSIANQAVRIQEGRYRHPGCYTCADCGLNLKMRGHFWVGDELYCEKHAR,-0.323 ± 0.16
14,HACEKCSTSIANQAVRIQEGRYRHPGCYTCADCGLNLKMRGHFWVGDELYCEKHAR,-0.578 ± 0.12
15,HECEKCSTSIANQAVRIQEGRYRHPGCYTCADCGLNLKMRGHFWVGDELYCEKHAR,-0.597 ± 0.078
16,HPCEKCSTSIANQAVRIQEGRYRHPGCYTCADCGLNLKMRGHFWVGDELYCEKHAR,-0.66 ± 0.08
17,HICEKCSTSIANQAVRIQEGRYRHPGCYTCADCGLNLKMRGHFWVGDELYCEKHAR,0.208 ± 0.16
18,HYCEKCSTSIANQAVRIQEGRYRHPGCYTCADCGLNLKMRGHFWVGDELYCEKHAR,-0.31 ± 0.27
19,HRCEKCSTSIANQAVRIQEGRYRHPGCYTCADCGLNLKMRGHFWVGDELYCEKHAR,-0.389 ± 0.091
20,HLCEKCSTSIANQAVRIQEGRYRHPGCYTCADCGLNLKMRGHFWVGDELYCEKHAR,-0.834 ± 0.12
21,HDCEKCSTSIANQAVRIQEGRYRHPGCYTCADCGLNLKMRGHFWVGDELYCEKHAR,-0.305 ± 0.31
22,HKCEKCSTSIANQAVRIQEGRYRHPGCYTCADCGLNLKMRGHFWVGDELYCEKHAR,0.003 ± 0.08
